Measurements taken from paper PMC11077089, “Molecular basis of A. thaliana KEOPS complex in biosynthesizing tRNA t6A”.

T1: KAE1;BUD32;CGI121;PCC1 (Arabidopsis thaliana;Arabidopsis …, UniProt O49653;Q94K14;Q6NMZ4;Q8GWD7 1-353;1-226;1-172;1-96, |||)
T1 sequence 1: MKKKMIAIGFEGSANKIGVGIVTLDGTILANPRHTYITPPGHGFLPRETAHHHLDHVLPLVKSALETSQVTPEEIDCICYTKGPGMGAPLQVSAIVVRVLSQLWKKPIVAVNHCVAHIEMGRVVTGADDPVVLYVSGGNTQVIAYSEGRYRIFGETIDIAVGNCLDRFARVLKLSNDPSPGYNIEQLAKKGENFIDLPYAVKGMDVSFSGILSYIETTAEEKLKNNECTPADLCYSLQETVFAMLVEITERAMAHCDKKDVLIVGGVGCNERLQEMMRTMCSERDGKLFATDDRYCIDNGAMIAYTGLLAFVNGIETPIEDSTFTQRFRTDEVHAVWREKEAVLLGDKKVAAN
T1 sequence 2: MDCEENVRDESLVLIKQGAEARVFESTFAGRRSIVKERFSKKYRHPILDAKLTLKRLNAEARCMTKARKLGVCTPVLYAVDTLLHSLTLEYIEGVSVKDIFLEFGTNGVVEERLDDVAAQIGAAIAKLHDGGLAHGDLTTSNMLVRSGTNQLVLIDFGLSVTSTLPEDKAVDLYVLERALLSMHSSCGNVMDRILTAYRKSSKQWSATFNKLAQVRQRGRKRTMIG
T1 sequence 3: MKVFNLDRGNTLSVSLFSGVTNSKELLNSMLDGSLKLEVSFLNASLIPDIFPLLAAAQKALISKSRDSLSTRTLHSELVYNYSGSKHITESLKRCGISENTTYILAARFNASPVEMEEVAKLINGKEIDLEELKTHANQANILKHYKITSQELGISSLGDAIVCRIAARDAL
T1 sequence 4: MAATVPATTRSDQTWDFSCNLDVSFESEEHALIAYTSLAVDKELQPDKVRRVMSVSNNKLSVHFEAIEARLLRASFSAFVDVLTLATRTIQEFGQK

B1: tRNALysUUU (structured_RNA)
RNA: GCCGUCUUAGCUCAGCGGUAGAGCGCGUGGCUUUUAACCACGUGGCCGUGGGUUCGAUCCCCACAGACGGCGCCA
B2: tRNAThrCGU (structured_RNA)
RNA: GCCUCCGUAGCAUAGUGGUAUUGCGUUCGCUUCGUAAGCGAAAGGUCGUGAGUUCGAUCCUCACCGUAGGCUCCA
B3: tRNAArgUCU (structured_RNA)
RNA: GCGCCCGUGGCCUAAUGGAUAAGGCGUUUGACUUCUAAUCAAACGAUUGUGGGUUCGAGUCCCACCGGGCGUGCCA
B4: tRNAIleUAU (structured_RNA)
RNA: GCUCCCGUAGCUCAGUUGGUUAGAGCGUUGGUCUUAUGAGCCGAAGGUCGCGGGUUCGAGCCCCGCCGGAAGCACCA
B5: tRNAAsnGUU (structured_RNA)
RNA: GCUGGAAUAGCUCAGUAGGUUUAGAGCGUGUGGCUGUUAACCUCAAGGUCGGAGGUUCGACCCCUCCUUUCAGCGCCA
B6: tRNASerGCU (structured_RNA)
RNA: GUCGCUUUGGCCGAGUGGUUAAGGCGUGUUCCUGCUAAGUACAUGGGGUUUCCCCGCGAGAGUUCGAAUCUGUCAGGCGACGCCA
B7: tRNAIleAAU (structured_RNA)
RNA: GGCCUAUUAGCUCAGUUGGUUAGAGCGUCGUGCUAAUAACGCGAAGGUCACAGGUUCGAUCCCUGUAUAGGCCACCA

These binders were tested against T1, KAE1;BUD32;CGI121;PCC1 (assay: EMSA; 20 uM each; MST: 20 mM PBS pH 7.5, 300 mM NaCl, 0.05% Tween 20, 25 C, 50 nM RNA; EMSA: 20 mM Tris-HCl pH 7.5, 300 mM NaCl, 5 mM b-mercaptoethanol, 20% glycerol, agarose gel in Tris-glycine pH 8.0 (8.5 for FAM-RNA), 4 C). Conditions: protein: recombinant;recombinant;recombinant;recombinant; tags: none (6His on partner PCC1);none (6His on partner CGI121);6His (C-term);6His (C-term); chain copies: 2;2;2;2; tRNA cloverleaf.

Binding result, binds:
B1, B2, B3, B4, B5, B6, B7
